{"source": "patent US4839466A", "about": "“Insulin activity messengers” (The Rockefeller University, priority 1987, dated 1989)", "test_system": "Pyruvate Dehydrogenase", "experiment": "Generation of an enzyme modulator from liver plasma membranes, pyruvate dehydrogenase readout", "format": "biochemical, rat", "procedure": "Purification of the Enzyme Modulator. Bovine liver particulate fraction was prepared as described previously [Saltiel A. R., (1984) \"Preparation and Characterization of Putative Insulin Mediators from Liver\", METHODS IN DIABETES […], eds. J. Larner, S. Pohl, I:73]. Solutions were incubated in 5 mM ammonium bicarbonate, pH 7.4 with 10 nM insulin or 1 ug/ml PI-PLC as described in the figure legends. Following incubation, solutions were acidified to pH 4.0 and centrifuged at 35,000 x g for 20 minutes. Resulting supernatants were extracted with chloroform/methanol (2:1). The upper aqueous phase was aspirated and methanol was evaporated. Enzyme modulating activities were purified as described in Publication No. 6 listed earlier herein. Briefly, the extract was chromatographed on DEAE-Cellulose and eluted with 0.25M triethylamine (TEA)-formate, pH 3.75. This was followed by chromatography on C-18 reversed phase resin, in the same buffer, followed by Dowex 50W X-4 in 50 mM TEA-formate, pH 3.0. The resulting eluate was lyophilized, resuspended in 50 mM TEA-formate, pH 4.5 and sequentially chromatographed on QAE-Sephadex, SAX HPLC and a P-2 gel filtration column. Only the cyclic inositol phosphate derivative residing in Peak I was examined.\nEnzyme Assays. The low Km cAMP PDE was assayed in a rat adipocyte particulate fraction as previously described [Saltiel, A. R., Steigerwalt,R. W., (1986) \"Purification of Putative Insulin-Sensitive cAMP Phosphodiesterase or its Catalytic Domain From Rat Adipocytes\", DIABETES, 35:698] and as later modified in Publication No. 6. Activity was linear throughout 20 min. and proportional to protein concentration. Only the low Km species of the enzyme was present in this fraction. PDH activity was assayed in liver mitoplasts after preincubation with ATP as previously described [Saltiel et al., (1982) PROC. NATL. ACAD. SCI. U.S.A., 79:3513.]. Adenylate cyclase activity was also assayed in purified adipocyte plasma membranes. For all enzyme assays, variability was less than 5%.\nLiver membranes were treated with or without 10 nM insulin or 1 ug/ml PI-PLC for 10 min. at 37° C. Following cetrifugation, the supernatants were extracted and purified up to and including the SAX HPLC step. Purified extracts were added to enzyme assays at a final dilution of 1:10. Enzyme activities were assayed with no additions or after addition of purified extracts from control, insulin or PIPPLC treated membrane. Percent of basal activity is expressed in parentheses. ^1 expressed as pmoles/mg protein-min. ^2 expressed as nmoles/mg protein-min.", "data": [{"substance": "Insulin: monocomponent bovine insulin", "values": [{"measurement": "Pyruvate Dehydrogenase activity", "setting": "extract as E41, no addition 1.77±0.07, control membranes 2.45±0.20", "value": "4.80±0.38", "unit": "nmoles/mg protein-min."}, {"measurement": "stimulation of PDH by the substance generated", "setting": "membranes exposed to 10 nM insulin 10 min.", "value": "2-3 fold"}]}]}
